For one substance, time of washout with EGTA-containing bath solution needed to remove the bound (endogenous) CaM from the channel in excised patches results are on record in article PMC12549891.

The test has as its target human olfactory CNGA2/A4/B1b heterotetrameric channel (human) (UniProt Q16280).

human olfactory CNGA2/A4/B1b heterotetrameric channel (human), sequence (Q16280 whole entry, chain 1 of 3): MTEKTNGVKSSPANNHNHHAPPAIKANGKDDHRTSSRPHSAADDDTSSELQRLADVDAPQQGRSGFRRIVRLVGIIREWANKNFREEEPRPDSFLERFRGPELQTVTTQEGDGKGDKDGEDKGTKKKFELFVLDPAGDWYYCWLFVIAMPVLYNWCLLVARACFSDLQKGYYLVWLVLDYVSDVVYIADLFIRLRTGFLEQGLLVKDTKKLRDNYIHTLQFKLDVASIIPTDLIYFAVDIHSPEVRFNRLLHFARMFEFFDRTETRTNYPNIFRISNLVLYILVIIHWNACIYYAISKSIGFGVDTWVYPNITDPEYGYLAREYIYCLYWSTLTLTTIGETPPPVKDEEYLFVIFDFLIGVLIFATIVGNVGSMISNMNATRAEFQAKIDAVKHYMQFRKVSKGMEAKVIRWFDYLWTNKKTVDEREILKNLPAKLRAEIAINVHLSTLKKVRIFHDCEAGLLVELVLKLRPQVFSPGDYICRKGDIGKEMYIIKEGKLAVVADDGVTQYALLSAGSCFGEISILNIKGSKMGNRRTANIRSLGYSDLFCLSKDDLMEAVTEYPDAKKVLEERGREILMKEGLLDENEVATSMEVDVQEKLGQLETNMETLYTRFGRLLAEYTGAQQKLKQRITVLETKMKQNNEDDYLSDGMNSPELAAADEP
human olfactory CNGA2/A4/B1b heterotetrameric channel (human), sequence (Q8IV77 whole entry, chain 2 of 3, further chain): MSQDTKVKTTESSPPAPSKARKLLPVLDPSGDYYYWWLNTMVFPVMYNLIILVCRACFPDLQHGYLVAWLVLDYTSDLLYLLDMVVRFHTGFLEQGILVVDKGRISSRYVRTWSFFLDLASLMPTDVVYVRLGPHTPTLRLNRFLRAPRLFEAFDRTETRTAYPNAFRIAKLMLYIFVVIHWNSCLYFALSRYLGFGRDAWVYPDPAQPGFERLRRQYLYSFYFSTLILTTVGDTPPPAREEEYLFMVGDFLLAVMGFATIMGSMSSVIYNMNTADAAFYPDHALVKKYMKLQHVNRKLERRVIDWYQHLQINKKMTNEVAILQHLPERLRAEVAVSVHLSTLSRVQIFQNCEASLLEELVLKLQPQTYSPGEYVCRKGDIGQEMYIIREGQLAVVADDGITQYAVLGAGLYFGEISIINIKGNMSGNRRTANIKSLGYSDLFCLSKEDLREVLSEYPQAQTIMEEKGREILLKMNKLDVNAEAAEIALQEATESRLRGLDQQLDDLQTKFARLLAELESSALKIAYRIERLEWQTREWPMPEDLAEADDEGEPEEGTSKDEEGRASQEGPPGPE
human olfactory CNGA2/A4/B1b heterotetrameric channel (human), sequence (Q14028 456-1251, chain 3 of 3, further chain): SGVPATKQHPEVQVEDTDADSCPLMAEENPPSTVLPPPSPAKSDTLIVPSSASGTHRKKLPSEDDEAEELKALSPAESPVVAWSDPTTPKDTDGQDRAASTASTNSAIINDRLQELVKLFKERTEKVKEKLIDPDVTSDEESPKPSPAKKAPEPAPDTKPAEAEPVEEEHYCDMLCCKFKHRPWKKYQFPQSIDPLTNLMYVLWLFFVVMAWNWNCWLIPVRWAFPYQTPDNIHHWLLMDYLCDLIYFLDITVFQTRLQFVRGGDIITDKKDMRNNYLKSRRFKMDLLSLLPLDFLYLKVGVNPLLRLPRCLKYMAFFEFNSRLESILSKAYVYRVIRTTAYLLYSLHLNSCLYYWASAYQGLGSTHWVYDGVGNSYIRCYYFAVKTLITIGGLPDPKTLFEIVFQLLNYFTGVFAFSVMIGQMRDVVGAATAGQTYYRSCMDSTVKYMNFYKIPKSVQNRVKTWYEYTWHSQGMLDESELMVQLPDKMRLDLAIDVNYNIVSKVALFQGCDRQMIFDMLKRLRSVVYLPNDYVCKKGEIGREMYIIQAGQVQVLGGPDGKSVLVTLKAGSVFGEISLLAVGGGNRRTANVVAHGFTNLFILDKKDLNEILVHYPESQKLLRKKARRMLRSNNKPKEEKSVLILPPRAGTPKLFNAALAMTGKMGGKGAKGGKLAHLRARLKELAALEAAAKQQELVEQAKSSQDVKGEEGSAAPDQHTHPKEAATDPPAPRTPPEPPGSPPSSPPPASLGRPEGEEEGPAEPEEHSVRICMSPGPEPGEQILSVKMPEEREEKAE

Regarding “human calmodulin (from UniProt P0DP23 1-149) (natural protein)”, the time of washout with EGTA-containing bath solution needed to remove the bound (endogenous) CaM from the channel in excised patches was 10 min.
